# In patent publication US20240400644A1 (ACROIMMUNE GUANGZHOU BIOTECH, published 2024):
# T1: HMGB1-His tag protein (human, UniProt P09429 1-215, limits assumed)
# T1 construct: Bought, HEK293 cell derived; also called human HMGB1; HMGB1-His protein; not shown: His tag
# T1 sequence (looked up): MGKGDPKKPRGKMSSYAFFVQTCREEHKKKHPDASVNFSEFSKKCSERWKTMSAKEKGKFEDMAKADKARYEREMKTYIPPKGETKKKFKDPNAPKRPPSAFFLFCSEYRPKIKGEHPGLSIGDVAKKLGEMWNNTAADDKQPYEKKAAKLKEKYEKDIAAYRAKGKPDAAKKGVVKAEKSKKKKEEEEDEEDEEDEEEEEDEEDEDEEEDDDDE
# T2: Siglec10-mIgG2aFc fusion protein (human, UniProt Q96LC7 17-546, limits assumed)
# T2 construct: Bought, HEK293 cell derived; also called human Siglec-10; AcroBiosystems SIO-H525b; not shown: mouse IgG2a Fc of the bought protein
# T2 sequence (looked up): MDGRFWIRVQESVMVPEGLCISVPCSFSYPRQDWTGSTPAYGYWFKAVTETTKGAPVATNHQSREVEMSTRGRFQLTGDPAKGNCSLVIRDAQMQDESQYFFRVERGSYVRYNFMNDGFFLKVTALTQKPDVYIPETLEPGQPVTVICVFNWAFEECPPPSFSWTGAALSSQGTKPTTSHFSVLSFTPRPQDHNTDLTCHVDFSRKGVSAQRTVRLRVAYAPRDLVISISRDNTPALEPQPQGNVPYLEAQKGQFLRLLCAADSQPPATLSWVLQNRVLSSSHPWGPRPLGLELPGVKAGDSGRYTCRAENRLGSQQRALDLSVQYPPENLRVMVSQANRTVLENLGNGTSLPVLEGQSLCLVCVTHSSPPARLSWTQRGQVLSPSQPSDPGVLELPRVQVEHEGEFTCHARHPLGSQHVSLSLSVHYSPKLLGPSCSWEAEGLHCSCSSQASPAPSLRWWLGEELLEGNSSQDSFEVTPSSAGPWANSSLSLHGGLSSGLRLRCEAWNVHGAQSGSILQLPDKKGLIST
# What was measured:
# [1] = molecular target: CD24Fc (HEK293 cell derived) (UniProt P25063); test: direct ELISA, antigen coated at 10 µg/ml, mAb titrated
# HMGB1-His tag protein = molecular target: T1, HMGB1-His tag protein; test: ELISA, HMGB1-His coated at 0.1 µg/mL, fusion protein titrated
# Experimental: 96-well plates were coated (100 μL per well) with 0.1 μg/mL HEK293 cell derived HMGB1-His tag protein (AcroBiosystems, HM1-H5220) at 4° C. overnight. After blocking with SuperBlock (Thermo, 37515) at room temperature for 1 hour, 100 μL of 2-fold serial dilutions of AI-071 or CD24Fc (all starting at 1.5 mg/mL, dilution buffer: PBST-1% BSA solution containing 1 mM MgCl2 and 1 mM CaCl2) were added. The bound AI-071 or CD24Fc protein was then detected by adding HRP-labeled goat anti-human IgG-Fc antibody (1:1000, Invitrogen, A18829), followed by the addition of tetramethylbenzidin (TMB) substrates. The EC50 values of the binding are shown in the underneath table. […] Recombinant HMGB1-His protein sample was incubated with AI-071, human IgG-Fc, or none for 5 min, the mixture was then incubated with protein A-conjugated beads to capture (or pull-down) the bound proteins. The captured proteins were then separated in a SDS-PAGE gel and visualized by Coomassie Brilliant Blue dye staining. […] As indicated on the top of each gel, lane 1 represents the sample containing HMGB1 only, lane 2 represents the sample containing HMGB1 and human IgG-Fc, and lane 3 represents the sample containing HMGB1 and AI-071, lane M is the protein molecule weight marker sample. […]
# [2] = molecular target: T2, Siglec10-mIgG2aFc fusion protein; test: ELISA, Siglec10-mIgG2aFc coated at 0.2 µg/mL, fusion protein titrated
# Experimental: 96-well plates were coated (100 μL per well) with 0.2 μg/mL of HEK293 cell derived Siglec10-mlgG2aFc fusion protein (AcroBiosystems, SIO-H525b) at 4° C. overnight. After blocking with SuperBlock (Thermo, 37515) at room temperature for 1 hour, 100 μL of 2-fold serial dilutions of AI-071 or CD24Fc protein (all starting at 1.5 mg/mL) were added. The bound AI-071 or CD24Fc protein was then detected by HRP-labeled goat anti-human IgG-Fc antibody (1:5000, Invitrogen, A18829) followed by the addition of tetramethylbenzidine (TMB) substrates. The EC50 values of the binding are shown in the underneath table.
# To probe the interaction of AI-071 protein with the members of Siglec family such as Siglec10, an ELSIA assay was developed. In-brief, 96-well plates were coated (100 μL per well) with 0.2 μg/mL of HEK293 cell derived Siglec10-mlgG2aFc fusion protein (AcroBiosystems, SIO-H525b) at 4° C. overnight. After washing and blocking with SuperBlock (Thermo, 37515) at room temperature for 1 hour, 100 μL of 2-fold serial dilutions of either AI-71 or CD24Fc (all starting at 1.5 mg/ml) were added. The bound AI-071 or CD24Fc protein was then detected by HRP-labeled goat anti-human IgG-Fc antibody (1:5000, Invitrogen, A18829) followed by the addition of Tetramethylbenzidin (TMB) substrates. […] The OD values at a wavelength of 450 nm (OD 450 nm) in each well were then measured.
EC50 [1] [nM],EC50 (HMGB1-His tag protein) [nM],EC50 [2] [nM],Molecule
4.67,,,SN3 mouse anti-CD24 mAb (antibody)
,51000,2850,"SETTTGTSSNSSQSTSNSGLAPNPTNATTKAAG (Fc fusion, UniProt P25063 27-59, looked up, not shown: Fc part) [CD24Fc (producing cell not stated)]"
